Two molecules from paper PMC7949163 can be followed below.

By stoichiometry N is commonly meant a count of units in the complex or per binding partner. For orientation: Kd means a measure of binding affinity in units of concentration. The low end stands for higher affinity, the high end for lower affinity.

For assay [1], the target named is Mutual gliding motility protein C (MglC) (Myxococcus xanthus). Description: SEC; analytical SEC, Superdex 200 Increase 10/300, 0.5 ml/min, A280; proteins alone or MglB:MglC mixed 1:1, 2:1 and 1:2; MglB mutants mixed with MglC 2:1. (Size exclusion chromatography separates by hydrodynamic size, large species first.)
For assay [2], the target named is Mutual gliding-motility protein B (MglB) (Myxococcus xanthus) (UniProt Q1DB03). The assay is described as above.
Assay [3] addresses Mutual gliding motility protein C (MglC) (Myxococcus xanthus). Description: SAXS; SAXSpace line collimation, 20 °C; MglB 25, 15, 10 mg/ml; MglC 35, 15, 20 mg/ml; MglBC and MglB^ΔCTC complexes freshly eluted from SEC.
Assay [4] concerns the target Mutual gliding-motility protein B (MglB) (Myxococcus xanthus) (UniProt Q1DB03). The description is as above.
For assay [5] the target is unchanged. Description: ITC; 25 °C; 50 μM MglB in the cell titrated with 500 μM MglC; one set of sites model; triplicates.
In assay [6] the target is T1, Mutual gliding-motility protein B (MglB) (Myxococcus xanthus), Q1DB03.
T1 chain: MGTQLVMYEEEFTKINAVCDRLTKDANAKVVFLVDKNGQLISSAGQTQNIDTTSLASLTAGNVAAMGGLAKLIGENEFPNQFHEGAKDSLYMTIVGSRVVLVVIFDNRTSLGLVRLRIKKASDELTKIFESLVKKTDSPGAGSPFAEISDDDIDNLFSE
Description: SEC; analytical SEC, Superdex 200 Increase 10/300, 0.5 ml/min, A280; proteins alone or MglB:MglC mixed 1:1, 2:1 and 1:2; MglB mutants mixed with MglC 2:1. The note with it: remark: other sources report otherwise.

Assay [7] addresses T1, Mutual gliding-motility protein B …. The assay is described as follows: SAXS; SAXSpace line collimation, 20 °C; MglB 25, 15, 10 mg/ml; MglC 35, 15, 20 mg/ml; MglBC and MglB^ΔCTC complexes freshly eluted from SEC. The note with it: remark: other sources report otherwise.

With “Mutual gliding motility protein C (MglC) (natural protein)”, the stoichiometry N stood at 2 in assay [1], 2 in assay [3] and 0.51 in assay [5]. Further, the stoichiometry N (MglC per MglB) in assay [2] and in assay [4] was 0.5 in each case. The molecule further returned a Kd in assay [5] of 417 nM. The molecule further displayed a dH in assay [5] of 6.94 kcal/mol.

B1: Mutual gliding-motility protein B (MglB), Q1DB03 1-159 (natural protein)
chain: T1 chain
B1: the stoichiometry N in assay [6] and in assay [7] was 2 each time.
